Data as given in US20240084003A1 (SIMCERE ZAIMING PHARMACEUTICAL, published 2024).

B1: F1.7.6 (antibody, human IgG1, kappa, V domains shown)
VH: EIQLQQSGPELVKPGTSVKVSCKASGYDFTRYNMYWVKQSHGKSLEWIGYIDPYNGDTRYNQKFKGKATLTVDKSSSTAYMHLNSLTSEDSAVYYCEAIYYDMEGYALDYWGQGTSVTVSS
VL: DIVMSQSPSSLAVSVGEKVTMSCKSSQSLLYSNNQKNYLAWYQQKPGQSPKKLIYWASTRESGVPDRLTGSGSGTDFTLTISSVTAEDLAVYYCQQFYSYPWTFGGGTKLEIKR
notes: human-murine chimeric IgG1 kappa; VL name legible
B2: F1.224.1 (antibody, human IgG1, kappa, V domains shown)
VH: EVLLHQSGPELVKPGASVKISCKASGYTFTDFNMDWVRQRHGQSLEWIGDVNPNNGGTIYNQKFKGKATLTVDKSSSTVYMDLRSLTSDDTAVYYCVRLGTSDYGEAWFISWGQGTVVTVSA
VL: DIVLTQSPASLAVSLGQRATISCRASQSVSTPRYSFMHWYQQKPGQPPKLLIKYASNLESGFPARFTGSGSGTDFTLNIHPVEEEDTAAYYCQQSWAIPWTFGGGTKLEIKR
notes: as for B1
B3: F1.250.16 (antibody, human IgG1, kappa, V domains shown)
VH: QVQLQQSGAEQVKPGASVKMSCKASGYTFTTYPIEWMKQNHGESLDWIGNIHPYNDDTEYNEKFKGKATLTVEKSSNTVFLELSRLTSDDSAVYYCVRGDYYNSRYWYFDVWGTGTTVTVSS
VL: DIVMTQSQKFMSTTVGDRVSITCKAGQNVRTAVAWYQQKPGQSPKLLIYSASTRYIGVPERFTGSGSGTDFTLTITNMQSEDLADYFCQQYSSFPLTFGTGTKLELKR
notes: as for B1
B4: F1.120.15 (antibody, human IgG1, kappa, V domains shown)
VH: QVQLQQSGPELVKPGASVKISCKASGNAFSNSWMNWVKQRPGKGLEWIGRVYSEDGDTQYNGKFRDKATLTADRSTSTAYMQLSSLTSEDSAVYFCARWLIYYGTYGAMDYWGQGTSVTVSS
VL: DIQMTQTTSSLSASLGDRVTISCRASQDINNYLNWYHQKPDGTVKLLIYFTSRPYSGVPSRFSGSGSGTDYSLTISNLEQEDIATYFCQQGNTLPWTFGGGTKLEIKR
notes: human-murine chimeric IgG1 kappa

What was measured:
[1] = molecular target: T1, monkey CD22 protein (ACROBiosystems, catalog number SI2-R52Ha) (monkey, UniProt F6W485 20-688); experiment: ELISA, coated monkey CD22 protein, antibody 0.01 nM
T1 construct: commercial protein; also called monkey CD22-ECD; monkey CD22-ECD-His
T1 sequence: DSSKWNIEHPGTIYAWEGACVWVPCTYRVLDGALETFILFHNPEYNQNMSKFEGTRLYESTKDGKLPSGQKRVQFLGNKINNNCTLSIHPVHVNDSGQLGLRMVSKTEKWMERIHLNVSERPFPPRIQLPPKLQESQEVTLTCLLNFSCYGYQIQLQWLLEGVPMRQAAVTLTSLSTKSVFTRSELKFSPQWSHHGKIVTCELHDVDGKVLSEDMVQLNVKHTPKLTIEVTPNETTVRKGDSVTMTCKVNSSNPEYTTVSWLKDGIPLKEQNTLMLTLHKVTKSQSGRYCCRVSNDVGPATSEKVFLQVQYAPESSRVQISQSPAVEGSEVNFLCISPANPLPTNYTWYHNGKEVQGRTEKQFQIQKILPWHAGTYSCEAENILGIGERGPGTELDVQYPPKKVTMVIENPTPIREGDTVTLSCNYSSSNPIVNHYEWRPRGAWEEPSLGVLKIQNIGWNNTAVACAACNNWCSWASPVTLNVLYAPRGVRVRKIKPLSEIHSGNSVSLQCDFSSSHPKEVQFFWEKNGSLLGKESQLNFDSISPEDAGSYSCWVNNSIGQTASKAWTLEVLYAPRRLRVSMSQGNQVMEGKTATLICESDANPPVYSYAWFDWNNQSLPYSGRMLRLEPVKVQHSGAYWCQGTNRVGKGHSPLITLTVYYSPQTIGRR
Procedure: (§1) In order to detect the binding activity of CD22 human-murine chimeric antibodies to CD22 protein, the purified human CD22-ECD-His protein obtained in Example 2 was diluted with PBS to a final concentration of 2 μg/mL, and then added to 96-well ELISA plate at 100 μl/well. The plate was sealed with plastic film and incubated overnight at 4° C., the plate was washed 2 times with PBS the next day, and then a blocking solution [PBS+2% (w/w) BSA] was added for blocking at room temperature for 2 hours. […] After incubation at 37° C. for 2 hours, the plate was washed 3 times with PBS. HRP (horseradish peroxidase)-labeled secondary antibody (purchased from Sigma, catalog number: A0170) was added, and incubated at 37° C. for 2 hours, and the plate was washed 5 times with PBS. TMB substrate was added at 50 μl/well, and incubated at room temperature for 30 minutes, then a stop solution (1.0 N HCl) was added at 50 μl/well.
(§2) In order to detect the species cross-binding activity of the chimeric antibodies, an ELISA plate was coated with commercial murine CD22 protein (ACROBiosystems, catalog number: SI2-M52Ha) and monkey CD22 protein (ACROBiosystems, catalog number: SI2-R52Ha), respectively, and the ELISA detection was performed according to the method in Example 5.1.

[2] = molecular target: T1, monkey CD22 protein (ACROBiosystems, …); experiment: ELISA, coated monkey CD22 protein, antibody 0.0001 nM
Procedure: as §1, §2

[3] = molecular target: T1, monkey CD22 protein (ACROBiosystems, …); experiment: ELISA, coated monkey CD22 protein, antibody 0.1 nM
Procedure: as §1, §2

[4] = molecular target: T1, monkey CD22 protein (ACROBiosystems, …); experiment: ELISA, coated monkey CD22 protein, antibody 0.001 nM
Procedure: as §1, §2

[5] = molecular target: T1, monkey CD22 protein (ACROBiosystems, …); experiment: ELISA, coated monkey CD22 protein, antibody 100 nM
Procedure: as §1, §2

[6] = molecular target: T2, CD22 on cynomolgus monkey peripheral blood B cells (cynomolgus monkey (Macaca fascicularis)); experiment: FACS, cynomolgus PBMC, CD20+ B cells, antibody 100 nM
T2 construct: whole, on cells; also called cynomolgus monkey B cells
From the text: (§3) The monkey peripheral blood mononuclear cells were extracted from fresh cynomolgus monkey peripheral blood (purchased from Shanghai Medicilon Inc.) according to the instructions of Ficoll-Paque Plus (purchased from GE Healthcare, catalog number: 171440-02). After the cell suspension was centrifuged, the cells were resuspended in PBS containing 1% BSA, and then the cells were counted. At the same time, the murine antibody Brilliant Violet 605 anti-human CD20 (catalog number: 302334, purchased from Biolegend) with monkey CD20 cross-binding activity and the chimeric antibodies to be tested (1 nM, 10 nM and 100 nM) were added and incubated at room temperature for 1 hour. After washing the cells three times, APC-labeled secondary antibody anti-human IgG Fc (catalog number: 409306, purchased from Biolegend) was added. After incubation at room temperature in the dark for 30 minutes, the cells were washed 5 times, gently resuspended with PBS containing 1% BSA, and detected and analyzed by FACS (FACS Canto™, purchased from BD Company). Wherein CD20 was used as a marker of B cells, and the CD20-positive B cell population was gated, the proportion of chimeric antibody positive cells was analyzed, and the proportion of chimeric antibody positive cell population to B cell population was calculated after treatments with the chimeric antibodies at the concentrations of 100 nM, 10 nM and 1 nM, respectively. The scatter plot of double-stained cells by Brilliant Violet 605-labeled CD20 and APC secondary antibody indirectly labeled chimeric antibody is shown in FIG. 10A-FIG. 10B (under the condition of 1 nM of chimeric antibody concentration).

[7] = molecular target: T2, CD22 on cynomolgus monkey peripheral …; experiment: FACS, cynomolgus PBMC, CD20+ B cells, antibody 10 nM
From the text: as §3

[8] = molecular target: T1, monkey CD22 protein (ACROBiosystems, …); experiment: ELISA, coated monkey CD22 protein, antibody 0.00001 nM
Procedure: as §1, §2

[9] = molecular target: T1, monkey CD22 protein (ACROBiosystems, …); experiment: ELISA, coated monkey CD22 protein, antibody 10 nM
Procedure: as §1, §2

[10] = molecular target: T2, CD22 on cynomolgus monkey peripheral …; experiment: FACS, cynomolgus PBMC, CD20+ B cells, antibody 1 nM
From the text: as §3

OD450 [1] [OD450] | OD450 [2] [OD450] | OD450 [3] [OD450] | OD450 [4] [OD450] | OD450 [5] [OD450] | Proportion of chimeric antibody positive cells to B cells (%) [6] [%] | Proportion of chimeric antibody positive cells to B cells (%) [7] [%] | OD450 [8] [OD450] | OD450 [9] [OD450] | Proportion of chimeric antibody positive cells to B cells (%) [10] [%] | Binder
0.06 | 0.06 | 0.07 | 0.06 | 0.44 | 43 | 28 | 0.06 | 0.17 | 17 | B1
1.86 | 0.15 | 2.3 | 0.6 | 2.87 | 97 | 96 | 0.08 | 2.48 | 83 | B2
2.62 | 0.23 | 2.81 | 1.02 | 3.08 | 97 | 95 | 0.1 | 2.97 | 92 | B3
0.65 | 0.07 | 1.56 | 0.16 | 1.64 | 93 | 86 | 0.06 | 1.9 | 27 | B4
